Each block holds one binder with its values, some of them ahead of it.
Experiments:
[1] = target: T1, ASTN1 peptide on HLA-A*02:01 (human); assay: cytokine release
T1 peptide: KLYGLDWAEL

[2] = target: T2, MAGE-A4 peptide on HLA-A*02:01 (human); assay: multimer staining
T2 peptide: GVYDGREHTV

binding result [1]: no recognition
binding result [2]: recognises
B1: TCR-3 (TCR, V domains shown)
Valpha: GENVEQHPSTLSVQEGDSAVIKCTYSDSASNYFPWYKQELGKRPQLIIDIRSNVGEKKDQRIAVTLNKTAKHFSLHITETQPEDSAVYFCAASRGTGFQKLVFGTGTRLLVSP
Vbeta: DTAVSQTPKYLVTQMGNDKSIKCEQNLGHDTMYWYKQDSKKFLKIMFSYNNKELIINETVPNRFSPKSPDKAHLNLHINSLELGDSAVYFCASSQFWDGAGDEQYFGPGTRLTVT

binding result [1]: no recognition
B2: TCR-2 (TCR, V domains shown)
Valpha: AQKITQTQPGMFVQEKEAVTLDCTYDTSDPSYGLFWYKQPSSGEMIFLIYQGSYDQQNATEGRYSLNFQKARKSANLVISASQLGDSAMYFCAMSGGYTGGFKTIFGAGTRLFVKA
Vbeta: DSGVTQTPKHLITATGQRVTLRCSPRSGDLSVYWYQQSLDQGLQFLIQYYNGEERAKGNILERFSAQQFPDLHSELNLSSLELGDSALYFCASSGGDGDEQFFGPGTRLTVL

binding result [1]: no recognition
binding result [2]: recognises
B3: TCR-1 (TCR, V domains shown)
Valpha: AQKITQTQPGMFVQEKEAVTLDCTYDTSDQSYGLFWYKQPSSGEMIFLIYQGSYDEQNATEGRYSLNFQKARKSANLVISASQLGDSAMYFCAMSGDSAGNMLTFGGGTRLMVKP
Vbeta: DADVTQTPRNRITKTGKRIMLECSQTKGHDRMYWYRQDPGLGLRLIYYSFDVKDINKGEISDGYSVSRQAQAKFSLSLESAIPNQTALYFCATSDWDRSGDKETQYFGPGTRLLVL

Reference: patent publication US20230159612A1 (published 2023)
